Consider two molecules from patent publication US20250064952A1 (ACCELERON PHARMA, published 2025).

First the molecules themselves.
B1: activin B (ligand, UniProt P09529 293-407, looked up)
chain: GLECDGRTNLCCRQQFFIDFRLIGWNDWIIAPTGYYGNYCEGSCPAYLAGVPGSASSFHTAVVNQYRMRGLNPGTVNSCCIPTKLSTMSMLYFDDEYNIVKRDVPNMIVEECGCA

For experiment [1], the target named is T1, ActRIIA-mFc (human, UniProt P27037 20-135).
T1 construct: extracellular domain; not shown: minimal linker, not specified for the mouse construct
T1 sequence (P27037 20-135): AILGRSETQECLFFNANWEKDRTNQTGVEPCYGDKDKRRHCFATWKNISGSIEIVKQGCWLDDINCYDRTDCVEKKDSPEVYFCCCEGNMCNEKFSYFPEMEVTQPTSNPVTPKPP
Kind of experiment: similar Biacore binding assay. The protocol:
GDF11 or activin A were immobilized on a Biacore™ CMS chip using standard amine-coupling procedure. ActRIIA-hFc and ActRIIA-mFc proteins were loaded onto the system, and binding was measured. […] See FIG. 15A-B. Using a similar binding assay, ActRIIA-hFc was determined to have high to moderate affinity for other TGF-beta superfamily ligands including, for example, activin B, GDF8, BMP6, and BMP10. ActRIIA-mFc behaved similarly.
(Surface plasmon resonance follows binding to a sensor surface in real time, without labels.)

Experiment [2] concerns the target T2, ActRIIB-Fc homodimer (human, UniProt Q13705 19-137).
T2 construct: extracellular domain; also called unmodified ActRIIB-Fc homodimer; ActRIIB-Fc:ActRIIB-Fc homodimer
T2 sequence (looked up): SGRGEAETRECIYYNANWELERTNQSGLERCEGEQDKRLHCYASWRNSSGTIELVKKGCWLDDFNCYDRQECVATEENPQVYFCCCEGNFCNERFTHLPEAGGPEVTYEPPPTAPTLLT
Briefly: SPR (Biacore), anti-Fc capture, ligand in flow. The protocol: A Biacore™-based binding assay was used to compare ligand binding selectivity of the ActRIIB-Fc:ALK4-Fc heterodimeric complex described above with that of ActRIIB-Fc and ALK4-Fc homodimer complexes. The ActRIIB-Fc:ALK4-Fc heterodimer, ActRIIB-Fc homodimer, and ALK4-Fc homodimer were independently captured onto the system using an anti-Fc antibody. Ligands were injected and allowed to flow over the captured receptor protein. Results are summarized in the table below, in which ligand off-rates (kd) most indicative of effective ligand traps are denoted by bold font.

Experiment [3] concerns the target T2, ActRIIB-Fc homodimer. Kind of experiment: SPR (Biacore), anti-Fc capture, ligand in flow. The method, then:
A Biacore™-based binding assay was used to compare ligand binding selectivity of the ActRIIB-Fc:ALK7-Fc heterodimeric complex described above with that of ActRIIB-Fc and ALK7-Fc homodimeric complexes. The ActRIIB-Fc:ALK7-Fc heterodimer, ActRIIB-Fc homodimer, and ALK7-Fc homodimer were independently captured onto the system using an anti-Fc antibody. Ligands were injected and allowed to flow over the captured receptor protein. Results are summarized in the table below, in which ligand off-rates (kd) most indicative of effective ligand traps are denoted by bold font.
The source holds these as a separate data set.

The target of experiment [4] is T2, ActRIIB-Fc homodimer. Kind of experiment: SPR (Biacore), 37 C, anti-Fc capture, ligand in flow. The protocol: (§1) A Biacore™-based binding assay was used to compare the ligand binding kinetics of an ActRIIB-Fc:ActRIIB(L79E)-Fc heterodimer with those of unmodified ActRIIB-Fc homodimer. Fusion proteins were captured onto the system using an anti-Fc antibody. Ligands were then injected and allowed to flow over the captured receptor protein at 37° C. Results are summarized in the table below, in which ligand off-rates (kd) most indicative of effective ligand traps are denoted in bold.

The target in experiment [5] is T3, GDF8 (UniProt O14793 267-375).
T3 construct: also called myostatin
T3 sequence (looked up): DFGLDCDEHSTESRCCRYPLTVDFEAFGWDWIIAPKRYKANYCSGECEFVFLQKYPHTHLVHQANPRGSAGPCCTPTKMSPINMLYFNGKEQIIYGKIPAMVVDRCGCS
The experiment is described as above. The method, then:
as §1

The target in experiment [6] is T4, BMP6 (UniProt P22004 382-513, limits assumed).
T4 sequence (looked up): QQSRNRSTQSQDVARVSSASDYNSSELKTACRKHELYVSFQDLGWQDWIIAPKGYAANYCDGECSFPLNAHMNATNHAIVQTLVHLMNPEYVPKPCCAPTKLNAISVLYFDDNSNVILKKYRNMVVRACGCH
The experiment is described as above. The protocol: as §1

Experiment [7] has as its target T5, GDF11 (UniProt O95390 299-407).
T5 construct: also called BMP11
T5 sequence (looked up): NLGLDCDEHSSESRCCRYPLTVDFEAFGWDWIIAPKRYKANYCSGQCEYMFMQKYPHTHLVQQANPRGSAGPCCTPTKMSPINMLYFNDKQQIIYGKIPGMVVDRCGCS
The experiment is described as above. The protocol: as §1

Experiment [8] concerns the target T6, GDF3 (UniProt Q9NR23 251-364).
T6 construct: also called VGR2
T6 sequence (looked up): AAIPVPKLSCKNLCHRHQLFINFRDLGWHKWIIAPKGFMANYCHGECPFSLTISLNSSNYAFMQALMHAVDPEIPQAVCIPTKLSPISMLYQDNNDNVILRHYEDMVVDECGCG
The description is as above. The protocol: as §1

The target in experiment [9] is T7, BMP10 (UniProt O95393 317-424).
T7 sequence (looked up): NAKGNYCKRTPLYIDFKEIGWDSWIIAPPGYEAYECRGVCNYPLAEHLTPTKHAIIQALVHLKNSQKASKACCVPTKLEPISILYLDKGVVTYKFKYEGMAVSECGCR
Described as above. The protocol: as §1

The target in experiment [10] is T8, activin A (UniProt P08476 311-426).
T8 sequence (looked up): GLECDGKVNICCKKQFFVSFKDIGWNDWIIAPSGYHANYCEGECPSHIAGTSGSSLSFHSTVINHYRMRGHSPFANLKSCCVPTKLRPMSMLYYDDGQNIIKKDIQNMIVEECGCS
The experiment is described as above. The method, then:
as §1

Experiment [11] addresses B1. The experiment is described as above. The protocol:
as §1

Experiment [12] deals with T9, BMP9 (UniProt Q9UK05 320-429).
T9 construct: also called GDF2
T9 sequence (looked up): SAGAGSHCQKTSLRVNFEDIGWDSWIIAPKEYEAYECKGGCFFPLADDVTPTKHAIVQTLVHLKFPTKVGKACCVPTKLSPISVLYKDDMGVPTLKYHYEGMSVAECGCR
The experiment is described as above. The method, then:
as §1

In general, Kd refers to the concentration at which binding is half-saturated. A higher Kd goes with weaker binding. Usually koff stands for the rate constant with which the complex falls apart. The kon is a measure of how fast the partners come together. Low values mean slow association, high ones fast association. As to B1, in [1], the binding result is given as “binds”. For the same molecule, the dissociation constant (Kd) was 0.02 nM in [2], 0.008 nM in experiment [3] and 0.008 nM in [4]. Further, the koff is 0.0001 s⁻¹ in experiment [2], 0.00016 s⁻¹ in experiment [3] and 6.6e-05 s⁻¹ in [4]. Moreover, the values for the kon in experiment [2], in [3] and in [4] were 5.1e+06 M⁻¹ s⁻¹, 1.5e+07 M⁻¹ s⁻¹ and 8.1e+06 M⁻¹ s⁻¹, respectively.

B2: ActRIIB-Fc:ActRIIB(L79E)-Fc heterodimer (Fc fusion)
chain 1: GRGEAETRECIYYNANWELERTNQSGLERCEGEQDKRLHCYASWRNSSGTIELVKKGCWLDDFNCYDRQECVATEENPQVYFCCCEGNFCNERFTHLPEAGGPEVTYEPPPTAPTGGGTHTCPPCPAPELLGGPSVFLFPPKPKDTLMISRTPEVTCVVVDVSHEDPEVKFNWYVDGVEVHNAKTKPREEQYNSTYRVVSVLTVLHQDWLNGKEYKCKVSNKALPAPIEKTISKAKGQPREPQVYTLPPSRKEMTKNQVSLTCLVKGFYPSDIAVEWESNGQPENNYKTTPPVLKSDGSFFLYSKLTVDKSRWQQGNVFSCSVMHEALHNHYTQKSLSLSPGK
chain 2: GRGEAETRECIYYNANWELERTNQSGLERCEGEQDKRLHCYASWRNSSGTIELVKKGCWEDDFNCYDRQECVATEENPQVYFCCCEGNFCNERFTHLPEAGGPEVTYEPPPTAPTGGGTHTCPPCPAPELLGGPSVFLFPPKPKDTLMISRTPEVTCVVVDVSHEDPEVKFNWYVDGVEVHNAKTKPREEQYNSTYRVVSVLTVLHQDWLNGKEYKCKVSNKALPAPIEKTISKAKGQPREPQVYTLPPSREEMTKNQVSLTCLVKGFYPSDIAVEWESNGQPENNYDTTPPVLDSDGSFFLYSDLTVDKSRWQQGNVFSCSVMHEALHNHYTQKSLSLSPG
notes: also called ActRIIB-Fc:ActRIIB(L79E)-Fc heteromer
Regarding B2, the Kd was 0.15 nM in experiment [5]; 0.056 nM in [6]; 0.009 nM in experiment [7]; 10 nM in experiment [8]; 0.042 nM in [9]; 0.17 nM in [10]. The figures for the dissociation constant Kd in [11] and in experiment [12] were 0.025 nM and more than 2.8 nM, respectively. The koff turned out to be 0.0005 s⁻¹ in experiment [5]; 0.018 s⁻¹ in experiment [6]; 0.00036 s⁻¹ in experiment [7]; 0.0059 s⁻¹ in experiment [8]; 0.002 s⁻¹ in experiment [9]; 0.0015 s⁻¹ in experiment [10]. The koff in [11] came out at 0.00021 s⁻¹. The kon in [5] is 3.4e+06 M⁻¹ s⁻¹; in experiment [6], 3.3e+08 M⁻¹ s⁻¹; in experiment [7] it was 4e+07 M⁻¹ s⁻¹; in experiment [8], 580000 M⁻¹ s⁻¹; in experiment [9] it was 4.8e+07 M⁻¹ s⁻¹; in experiment [10] it was 8.8e+06 M⁻¹ s⁻¹. The kon in experiment [11] was determined as 8.3e+06 M⁻¹ s⁻¹. For the same molecule, the “fold faster off-rate vs ActRIIB-Fc homodimer” value in experiment [9] and in experiment [10] was approximately 10 fold throughout.
